Molecular target: T1, cynomolgus monkey FcγRIIa1 extracellular domain with C-terminal His-tag (cynomolgus monkey)
T1 construct: also called cyno FcgRIIa1; cynoFcγRIIa1
T1 chain: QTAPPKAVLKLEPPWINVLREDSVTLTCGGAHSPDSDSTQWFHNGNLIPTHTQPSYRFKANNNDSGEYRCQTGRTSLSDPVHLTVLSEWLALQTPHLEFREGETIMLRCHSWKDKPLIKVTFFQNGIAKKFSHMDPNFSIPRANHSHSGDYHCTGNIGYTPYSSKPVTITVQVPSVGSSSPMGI
Assay: SPR (BIACORE), antibody captured, FcgR analyte

B1: MS_M103205H795-SG1/M103202L889-SK1 (antibody, human IgG1, kappa)
heavy: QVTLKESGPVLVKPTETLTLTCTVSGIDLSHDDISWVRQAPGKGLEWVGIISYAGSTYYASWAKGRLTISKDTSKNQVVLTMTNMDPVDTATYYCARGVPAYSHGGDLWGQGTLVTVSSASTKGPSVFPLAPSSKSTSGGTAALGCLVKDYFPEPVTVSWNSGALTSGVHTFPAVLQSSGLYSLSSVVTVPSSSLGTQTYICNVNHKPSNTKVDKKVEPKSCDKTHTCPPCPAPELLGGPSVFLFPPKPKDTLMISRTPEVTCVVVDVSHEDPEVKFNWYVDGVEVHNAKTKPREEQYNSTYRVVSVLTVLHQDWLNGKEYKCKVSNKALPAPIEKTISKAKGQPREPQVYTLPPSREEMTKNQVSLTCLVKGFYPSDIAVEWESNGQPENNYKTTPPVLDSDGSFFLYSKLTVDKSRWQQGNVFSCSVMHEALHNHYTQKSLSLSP
light: DIVMTQSPATLSLSPGERATLSCTSSQSVYHANWLSWFQQKPGQPPKLLIYWASTLAYGVPSRFSGSGSGTDFTLTISSLQPEDAATYYCAGGYGGGRYAFGQGTKVEIKRTVAAPSVFIFPPSDEQLKSGTASVVCLLNNFYPREAKVQWKVDNALQSGNSQESVTEQDSKDSTYSLSSTLTLSKADYEKHKVYACEVTHQGLSSPVTKSFNRGEC
notes: Parent antibody of the Fc variants; also called MS1032LO06-SG1
Kd: 3.2 µM
